Measured values from PMC2888197, “B-lymphocyte stimulator/a proliferation-inducing ligand heterotrimers are elevated in the sera of patients with autoimmune disease and are neutralized by atacicept and B-cell maturation antigen-immunoglobulin” (Arthritis Research & Therapy, 2010).
Values belong to the binder of their own block, whether it stands above or below them.

B2: a proliferation-inducing ligand (APRIL) homotrimer, recombinant (ligand, human, UniProt O75888 110-250, looked up)
chain: KQKKQHSVLHLVPINATSKDDSDVTEVMWQPALRRGRGLQAQGYGVRIQDAGVYLLYSQVLFQDVTFTMGQVVSREGQGRQETLFRCIRSMPSHPDRAYNSCYSAGVFHLHQGDILSVIIPRARAKLNLSPHGTFLGFVKL
notes: APRIL, recombinant soluble homotrimer; Six lots were used for SPR; also called homotrimeric APRIL
B3: atacicept (Fc fusion, human, UniProt O14836 1-165, looked up)
chain: MSGLGRSRRGGRSRVDQEERFPQGLWTGVAMRSCPEEQYWDPLLGTCMSCKTICNHQSQRTCAAFCRSLSCRKEQGKFYDHLLRDCISCASICGQHPKQCAYFCENKLRSPVNLPPELRRQRSGEVENNSDNSGRYQGLEHRGSEASPALPGLKLSADQVALVYS
notes: also called TACI-Ig; soluble receptor fusion protein of TACI

How the values were obtained:
Conditions in all cases: both partners purified
[1] = molecular target: T1, Hisx6-zz12.6 form of BLyS (amino acids 141-285) (human, UniProt Q9Y275 141-285); experiment: SEC-MALS; heterotrimer co-expressed in CHO, purified by Ni-NTA (His on BLyS), heparin and SEC; ratio of the chains by Western blot (anti-His, anti-Flag), confirmed by SEC-MALS
T1 construct: The BLyS chain of the heterotrimer m3; the zipper itself may help to hold the chains together; also called BLyS NH6 zz12.6; His-zz12.6 BLyS; source: CHO DXB11, co-expressed with Flag-zz12.6 APRIL, purified from conditioned media (Ni-NTA, heparin, SEC); not shown: His6, N-terminal, kept; zz12.6 trimerization domain, N-terminal, kept

atacicept = molecular target: B3; experiment: SPR; Biacore 3000; atacicept, BCMA-Ig and BAFF-R-Ig covalently immobilized on a CM4 chip; ligands ~0.05 to 20 nMol/L flowed at 50 ul/min, 25 C; 20 mmol/L sodium phosphate, 150 mmol/L NaCl, 0.05% polysorbate 20, pH 7.5; KD from ka and kd, global fit to a 1:1 model; stoichiometry not determined
[2] = molecular target: T2, recombinant BLyS/APRIL heterotrimer (Hisx6-zz12.6 BLyS with Flag-zz12.6 APRIL), predominantly 2 APRIL to 1 … (human, UniProt O75888 110-250; Q9Y275 141-285); experiment: as above
T2 construct: human APRIL amino acids 110-250, downstream of the otPA leader, Flag and the proprietary zz12.6 trimerization domain; The preparation holds a small fraction of 1 APRIL to 2 BLyS (AB2) heterotrimers; also called heterotrimers; HT; not shown: Flag, N-terminal, kept; zz12.6 trimerization domain, N-terminal, kept; His6, N-terminal, kept; copies: 2 + 1

[3] = molecular target: B2; experiment: as above

T2 sequence (Q9Y275 141-285, chain 2 of 2, one chain of several): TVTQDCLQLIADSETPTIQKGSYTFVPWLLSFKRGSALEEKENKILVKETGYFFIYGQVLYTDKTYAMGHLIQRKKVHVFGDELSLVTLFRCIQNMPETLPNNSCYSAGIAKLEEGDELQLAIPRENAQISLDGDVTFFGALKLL
T1 sequence (Q9Y275 141-285): as the sequence (Q9Y275 141-285, chain 2 of 2, one chain of several) above

stoichiometry N [1]: 2 APRIL per BLyS
B1: Flag-zippered (zz) 12.6 form of APRIL (amino acids 110-250) (domain or fragment, human, UniProt O75888 110-250, looked up)
chain: KQKKQHSVLHLVPINATSKDDSDVTEVMWQPALRRGRGLQAQGYGVRIQDAGVYLLYSQVLFQDVTFTMGQVVSREGQGRQETLFRCIRSMPSHPDRAYNSCYSAGVFHLHQGDILSVIIPRARAKLNLSPHGTFLGFVKL
notes: human APRIL amino acids 110-250, downstream of the otPA leader, Flag and the zz12.6 trimerization domain; The APRIL chain of the heterotrimer m3; the zipper itself may help to hold the chains together; also called Flag-zz12.6 APRIL; APRIL NF zz12.6; source: CHO DXB11, co-expressed with Hisx6-zz12.6 BLyS, purified from conditioned media (Ni-NTA, heparin, SEC); not shown: Flag, N-terminal, kept; …

Kd [3]: 0.1 to 0.3 pM
Kd [2]: 0.01 nM
B4: B-cell maturation antigen (BCMA)-immunoglobulin (Ig) (Fc fusion, UniProt Q02223 1-54, looked up)
chain: MLQMAGQCSQNEYFDSLLHACIPCQLRCSSNTPPLTCQRYCNASVTNSVKGTNA
notes: BCMA, soluble receptor-Fc fusion protein; Construct not described in the main text; Additional file 1 may describe it; also called BCMA-Ig

Continued, binder first:

Binder: B2
Kd (atacicept): 0.1 to 0.2 nM

Binder: B3
Kd [2]: 0.4 nM
